Source: IntAct's records for PubMed 31515488

B1: Potassium channel subfamily K member 1 (Homo sapiens), O00180 (parent)
chain: MLQSLAGSSCVRLVERHRSAWCFGFLVLGYLLYLVFGAVVFSSVELPYEDLLRQELRKLKRRFLEEHECLSEQQLEQFLGRVLEASNYGVSVLSNASGNWNWDFTSALFFASTVLSTTGYGHTVPLSDGGKAFCIIYSVIGIPFTLLFLTAVVQRITVHVTRRPVLYFHIRWGFSKQVVAIVHAVLLGFVTVSCFFFIPAAVFSVLEDDWNFLESFYFCFISLSTIGLGDYVPGEGYNQKFRELYKIGITCYLLLGLIAMLVVLETFCELHELKKFRKMFYVKKDKDEDQVHIIEHDQLSFSSITDQAAGMKEDQKQNEPFVATQSSACVDGPANH
partner: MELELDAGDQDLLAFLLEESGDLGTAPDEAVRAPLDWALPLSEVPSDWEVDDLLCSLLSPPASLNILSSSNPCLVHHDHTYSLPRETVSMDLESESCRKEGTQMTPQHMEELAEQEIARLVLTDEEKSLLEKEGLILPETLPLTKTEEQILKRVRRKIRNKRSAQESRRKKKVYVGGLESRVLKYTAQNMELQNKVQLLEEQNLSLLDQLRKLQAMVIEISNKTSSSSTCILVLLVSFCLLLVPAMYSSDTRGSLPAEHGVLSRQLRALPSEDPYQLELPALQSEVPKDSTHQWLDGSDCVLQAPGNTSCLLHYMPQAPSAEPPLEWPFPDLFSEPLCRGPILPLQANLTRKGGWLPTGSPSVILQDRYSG
B2: Keratin, type I cuticular Ha3-II (Homo sapiens), Q14525 (parent)
chain: MPYNFCLPSLSCRTSCSSRPCVPPSCHGYTLPGACNIPANVSNCNWFCEGSFNGSEKETMQFLNDRLASYLEKVRQLERDNAELENLIRERSQQQEPLLCPSYQSYFKTIEELQQKILCSKSENARLVVQIDNAKLAADDFRTKYQTEQSLRQLVESDINSLRRILDELTLCRSDLEAQMESLKEELLSLKQNHEQEVNTLRCQLGDRLNVEVDAAPAVDLNQVLNETRNQYEALVETNRREVEQWFATQTEELNKQVVSSSEQLQSYQAEIIELRRTVNALEIELQAQHNLRYSLENTLTESEARYSSQLSQVQSLITNVESQLAEIRSDLERQNQEYQVLLDVRARLECEINTYRSLLESEDCKLPSNPCATTNACEKPIGSCVTNPCGPRSRCGPCNTFGY
B3: Actin-associated protein FAM107A (Homo sapiens), O95990 (parent)
chain: MYSEIQRERADIGGLMARPEYREWNPELIKPKKLLNPVKASRSHQELHRELLMNHRRGLGVDSKPELQRVLEHRRRNQLIKKKKEELEAKRLQCPFEQELLRRQQRLNQLEKPPEKEEDHAPEFIKVRENLRRIATLTSEEREL
partner: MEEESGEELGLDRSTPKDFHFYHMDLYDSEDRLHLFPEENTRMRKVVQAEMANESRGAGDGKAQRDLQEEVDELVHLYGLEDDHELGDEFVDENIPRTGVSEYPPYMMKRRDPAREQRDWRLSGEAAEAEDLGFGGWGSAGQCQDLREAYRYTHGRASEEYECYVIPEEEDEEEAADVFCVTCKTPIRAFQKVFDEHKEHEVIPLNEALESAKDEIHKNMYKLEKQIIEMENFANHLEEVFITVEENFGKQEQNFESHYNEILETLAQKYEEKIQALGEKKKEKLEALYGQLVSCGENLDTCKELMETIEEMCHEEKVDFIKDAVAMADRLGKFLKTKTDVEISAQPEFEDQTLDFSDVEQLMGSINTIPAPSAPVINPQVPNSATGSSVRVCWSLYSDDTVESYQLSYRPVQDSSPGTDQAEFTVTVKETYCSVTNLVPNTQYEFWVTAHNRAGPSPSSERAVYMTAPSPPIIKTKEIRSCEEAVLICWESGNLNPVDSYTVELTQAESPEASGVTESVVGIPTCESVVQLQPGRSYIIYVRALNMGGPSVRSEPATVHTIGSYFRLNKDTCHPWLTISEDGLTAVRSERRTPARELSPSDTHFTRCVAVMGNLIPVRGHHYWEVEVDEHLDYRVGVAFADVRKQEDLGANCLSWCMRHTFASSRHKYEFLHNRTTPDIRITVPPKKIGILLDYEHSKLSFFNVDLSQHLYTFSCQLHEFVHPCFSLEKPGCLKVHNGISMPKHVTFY
B4: Protein FRA10AC1 (Homo sapiens), Q70Z53 (parent)
chain: MHGHGGYDSDFSDDERCGESSKRKKRTVEDDLLLQKPFQKEKHGKVAHKQVAAELLDREEARNRRFHLIAMDAYQRHTKFVNDYILYYGGKKEDFKRLGENDKTDLDVIRENHRFLWNEEDEMDMTWEKRLAKKYYDKLFKEYCIADLSKYKENKFGFRWRVEKEVISGKGQFFCGNKYCDKKEGLKSWEVNFGYIEHGEKRNALVKLRLCQECSIKLNFHHRRKEIKSKKRKDKTKKDCEESSHKKSRLSSAEEASKKKDKGHSSSKKSEDSLLRNSDEEESASESELWKGPLPETDEKSQEEEFDEYFQDLFL
B5: Zinc finger protein 414 (Homo sapiens), Q96IQ9 (parent)
chain: MEEKPSGPIPDMLATAEPSSSETDKEVLSPAVPAAAPSSSMSEEPGPEQAATPPVWERGGAGGMQQGSSPAPDSCQPGPGPSPGLTSIVSGTSEDLRPPRRRPPPGKQIPCSSPGCCLSFPSVRDLAQHLRTHCPPTQSLEGKLFRCSALSCTETFPSMQELVAHSKLHYKPNRYFKCENCLLRFRTHRSLFKHLHVCAEHAQSPAPPPPPALDREPPAPERPPEVDPASAPGLPFPLLEPFTTPAPAPTGPFLPYLNPAPFGLSPPRLRPFLAAAPGPPASSAAVWKKSQGAGSSPRRPQGGSDAPSGACR
partner: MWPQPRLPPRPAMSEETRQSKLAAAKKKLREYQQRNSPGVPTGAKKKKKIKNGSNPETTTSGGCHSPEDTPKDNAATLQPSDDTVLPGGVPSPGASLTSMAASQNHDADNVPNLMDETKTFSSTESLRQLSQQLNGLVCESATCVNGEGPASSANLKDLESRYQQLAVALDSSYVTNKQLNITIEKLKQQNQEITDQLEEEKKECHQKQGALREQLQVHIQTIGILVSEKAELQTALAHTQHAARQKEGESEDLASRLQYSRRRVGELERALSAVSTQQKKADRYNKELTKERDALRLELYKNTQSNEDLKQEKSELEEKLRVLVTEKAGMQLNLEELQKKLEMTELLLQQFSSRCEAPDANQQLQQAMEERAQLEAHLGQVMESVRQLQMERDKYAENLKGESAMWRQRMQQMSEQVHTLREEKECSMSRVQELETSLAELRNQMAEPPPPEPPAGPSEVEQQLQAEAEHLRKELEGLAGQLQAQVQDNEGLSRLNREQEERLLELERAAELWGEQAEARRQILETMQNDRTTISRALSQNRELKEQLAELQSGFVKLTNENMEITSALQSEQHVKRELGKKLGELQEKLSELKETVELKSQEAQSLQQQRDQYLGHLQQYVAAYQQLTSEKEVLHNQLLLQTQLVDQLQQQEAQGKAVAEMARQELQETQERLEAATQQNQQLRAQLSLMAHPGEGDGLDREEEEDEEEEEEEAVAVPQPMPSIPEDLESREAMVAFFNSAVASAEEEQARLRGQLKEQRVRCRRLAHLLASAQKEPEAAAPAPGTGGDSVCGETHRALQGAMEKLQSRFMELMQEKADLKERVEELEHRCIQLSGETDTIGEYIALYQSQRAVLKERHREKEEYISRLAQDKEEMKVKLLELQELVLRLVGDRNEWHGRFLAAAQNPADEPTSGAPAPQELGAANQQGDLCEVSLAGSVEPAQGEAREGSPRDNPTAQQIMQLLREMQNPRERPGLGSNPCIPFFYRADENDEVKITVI

Variants of: B1
Settings: with creb3_human CREB3, O43889

Variant	effect of a mutation on the interaction
R171H	with no effect

Variants of: B2
Settings: with KRT79, Q5XKE5
Chain of KRT79, Q5XKE5 (Q5XKE5 whole entry): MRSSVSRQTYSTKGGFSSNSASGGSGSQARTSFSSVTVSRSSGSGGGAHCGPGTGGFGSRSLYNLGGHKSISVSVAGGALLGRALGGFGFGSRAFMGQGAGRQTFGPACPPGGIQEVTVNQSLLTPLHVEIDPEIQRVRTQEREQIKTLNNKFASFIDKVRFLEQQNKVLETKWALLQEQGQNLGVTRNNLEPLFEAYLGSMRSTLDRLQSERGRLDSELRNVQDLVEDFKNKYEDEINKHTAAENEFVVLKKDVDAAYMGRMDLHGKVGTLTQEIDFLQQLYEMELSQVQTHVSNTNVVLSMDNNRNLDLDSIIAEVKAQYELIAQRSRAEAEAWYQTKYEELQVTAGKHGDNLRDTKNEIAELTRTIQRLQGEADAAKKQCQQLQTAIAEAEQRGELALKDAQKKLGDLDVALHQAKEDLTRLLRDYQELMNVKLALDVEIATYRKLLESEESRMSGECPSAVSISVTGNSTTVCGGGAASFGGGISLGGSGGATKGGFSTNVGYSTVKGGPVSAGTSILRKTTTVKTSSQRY

Variant	effect of a mutation on the interaction
Y294D	with no effect

Variants of: B2
Settings: with k2c4_human KRT4, P19013
Chain of k2c4_human KRT4, P19013 (P19013 whole entry): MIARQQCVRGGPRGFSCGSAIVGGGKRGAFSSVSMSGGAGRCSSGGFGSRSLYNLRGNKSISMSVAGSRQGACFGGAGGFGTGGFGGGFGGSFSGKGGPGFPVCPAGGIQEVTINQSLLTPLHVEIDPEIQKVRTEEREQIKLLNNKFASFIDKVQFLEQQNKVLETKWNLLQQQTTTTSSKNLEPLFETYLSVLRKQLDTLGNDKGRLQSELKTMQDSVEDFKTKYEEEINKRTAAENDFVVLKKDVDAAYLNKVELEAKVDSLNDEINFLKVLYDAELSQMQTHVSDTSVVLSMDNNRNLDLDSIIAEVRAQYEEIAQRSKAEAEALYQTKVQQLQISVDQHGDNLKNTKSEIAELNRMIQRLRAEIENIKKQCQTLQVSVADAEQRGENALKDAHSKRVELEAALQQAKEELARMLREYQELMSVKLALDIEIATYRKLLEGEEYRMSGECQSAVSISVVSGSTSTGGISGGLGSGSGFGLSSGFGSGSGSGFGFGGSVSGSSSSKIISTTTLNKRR

Variant	effect of a mutation on the interaction
R66H	disrupting interaction strength
E85K	with no effect
Q223R	with no effect
I318V	with no effect

Variants of: B3
Settings: with fsd2_human FSD2, A1L4K1

Variant	effect of a mutation on the interaction
E141Q	disrupting interaction strength

Variants of: B4
Settings: with tri41_human TRIM41, Q8WV44

Variant	effect of a mutation on the interaction
S251F	with no effect

Variants of: B5
Settings: with goga2_human GOLGA2, Q08379

Variant	effect of a mutation on the interaction
P77S	with no effect
S166G	with no effect
